Source: patent publication US5482996A, “Protein-containing polymers and a method of synthesis of protein-containing polymers in organic solvents” (University of Pittsburgh, priority 1993, dated 1996)

B1: Subtilisin Carlsberg, native (pure subtilisin standard) (Bacillus licheniformis) (protein)
chain: AQTVPYGIPLIKADKVQAQGFKGANVKVAVLDTGIQASHPDLNVVGGASFVAGEAYNTDGNGHGTHVAGTVAALDNTTGVLGVAPSVSLYAVKVLNSSGSGSYSGIVSGIEWATTNGMDVINMSLGGASGSTAMKQAVDNAYAKGVVVVAAAGNSGSSGNTNTIGYPAKYDSVIAVGAVDSNSNRASFSSVGAELEVMAPGAGVYSTYPTNTYATLNGTSMASPHVAGAAALILSKHPNLSASQVRNRLSSTATYLGSSFYYGKGLINVEAAAQ
notes: purchased Sigma Chemical Co
B2: Subtilisin Carlsberg, unmodified fraction purified from the PEG modification reaction mixture (Bacillus licheniformis) (protein)
chain: AQTVPYGIPLIKADKVQAQGFKGANVKVAVLDTGIQASHPDLNVVGGASFVAGEAYNTDGNGHGTHVAGTVAALDNTTGVLGVAPSVSLYAVKVLNSSGSGSYSGIVSGIEWATTNGMDVINMSLGGASGSTAMKQAVDNAYAKGVVVVAAAGNSGSSGNTNTIGYPAKYDSVIAVGAVDSNSNRASFSSVGAELEVMAPGAGVYSTYPTNTYATLNGTSMASPHVAGAAALILSKHPNLSASQVRNRLSSTATYLGSSFYYGKGLINVEAAAQ
notes: purchased Sigma Chemical Co

Legend:
[1] = substrate: C[C@H](NC(=O)CCC(=O)O)C(=O)N[C@@H](C)C(=O)N1CCC[C@H]1C(=O)N[C@@H](Cc1ccccc1)C(=O)Nc1ccc([N+](=O)[O-])cc1; experiment: Hydrolysis of peptide p-nitroanilide substrate, kinetic constants; assay type: biochemical; details: other: Tris-HCl buffer (0.1M, pH 8.6)
Procedure: (§1) Kinetic studies of the modified protein were performed using substrate (N-succinyl-L-alanyl-L-alanyl-L-prolyl-L-phenylalanyl p-nitroanilide) in 0.1M Tris-HCl buffer, pH 8.6. The purified HPLC fractions (three total) were tested for activity while increasing the substrate concentrations in equal increments. Substrate concentration versus rate was plotted to determine Vmax and Km using non-linear regression analysis. A standard of pure subtilisin was analyzed as a control.
As set forth above, the activity of the modified enzymes was assessed with the artificial peptide substrate succinyl-L-alanyl-L-alanyl-L-prolyl-L-phenylalanyl p-nitroanilide. A sample of 30 mg modified protein powder was dissolved in tetrahydrofuran, and filtered with a solvent resistant 0.22 μm filter in order to remove the insoluble native protein. The solvent was evaporated and, as mentioned above, values for Vmax and Km were determined.

[2] = substrate: C[C@H](NC(=O)CCC(=O)O)C(=O)N[C@@H](C)C(=O)N1CCC[C@H]1C(=O)N[C@@H](Cc1ccccc1)C(=O)Nc1ccc([N+](=O)[O-])cc1; experiment: as above; assay type: biochemical; details: other: Tris-HCl buffer (0.1M, pH 8.6); remark: listed apart in the source
Procedure: as §1
Before reacting PEG-subtilisin with other materials it is necessary to fully characterize the activity and stability of the "bio-monomer". Using solubility, IMAC, and HPLC the modified protein was separated into predominantly singly or doubly modified protein fractions. […] Thus, the activities and stabilities noted are average properties for the sample being studied. For comparison to the native protein, unmodified protein was purified from the modification reaction mixture and characterized to some degree.
As set forth above, the activity of the modified enzymes was assessed with the artificial peptide substrate succinyl-L-alanyl-L-alanyl-L-prolyl-L-phenylalanyl p-nitroanilide. […] The solvent was evaporated and, as mentioned above, values for Vmax and Km were determined.

| Protein | Km [1] [µM] | Km [2] [µM] |
| --- | --- | --- |
| B1 | 120 | – |
| B2 | – | 170 |
